Test results taken from patent publication US20140120109A1 (Regeneron, published 2014).

T1: Fhm, hTL1A(Q167R), soluble, CHO-expressed, residues 72-251 of SEQ ID NO:246 (human, UniProt O95150 72-251)
T1 chain: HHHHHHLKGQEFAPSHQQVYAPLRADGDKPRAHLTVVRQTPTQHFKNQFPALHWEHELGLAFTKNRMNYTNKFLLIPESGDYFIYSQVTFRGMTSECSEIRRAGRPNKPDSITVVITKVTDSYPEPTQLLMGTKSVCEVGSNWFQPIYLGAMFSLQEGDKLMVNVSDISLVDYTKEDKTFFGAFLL

T2: rat TL1A, soluble, CHO-expressed, residues 76-252 of SEQ ID NO:258 with N-terminal His6-tag (rat, UniProt Q8K3Y7 76-252)
T2 sequence: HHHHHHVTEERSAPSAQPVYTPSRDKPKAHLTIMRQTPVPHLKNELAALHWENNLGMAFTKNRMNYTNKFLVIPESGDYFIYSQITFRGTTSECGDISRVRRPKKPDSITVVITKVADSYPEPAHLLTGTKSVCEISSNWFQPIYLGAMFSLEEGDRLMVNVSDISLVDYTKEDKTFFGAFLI

T3: human TL1A, soluble, CHO-expressed, residues 72-251 of SEQ ID NO:244 with N-terminal His6-tag (human, UniProt O95150 72-251)
T3 sequence: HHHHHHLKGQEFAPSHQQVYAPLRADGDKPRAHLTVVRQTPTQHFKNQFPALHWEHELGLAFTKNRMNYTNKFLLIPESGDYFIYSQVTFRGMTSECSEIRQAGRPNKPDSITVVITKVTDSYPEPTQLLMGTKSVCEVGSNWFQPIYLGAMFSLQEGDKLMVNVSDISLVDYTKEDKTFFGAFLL

T4: cynomolgus monkey TL1A, soluble, E. coli-expressed, residues 72-251 of SEQ ID NO:248 (cynomolgus monkey (Macaca fascicularis), UniProt O95150 72-251 (human entry))
T4 construct: with or without N-terminal Met; also called MfTL1A (E. Coli)
T4 chain: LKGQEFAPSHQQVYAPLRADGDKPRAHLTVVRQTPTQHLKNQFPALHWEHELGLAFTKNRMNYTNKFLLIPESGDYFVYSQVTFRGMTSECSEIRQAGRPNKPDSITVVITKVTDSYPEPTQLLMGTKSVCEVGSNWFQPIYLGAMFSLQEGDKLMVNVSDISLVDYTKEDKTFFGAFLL

T5: Fhm, hTL1A(Q167R), soluble, E. coli-expressed, residues 72-251 of SEQ ID NO:246 (human, UniProt O95150 72-251)
T5 construct: with or without N-terminal Met
T5 chain: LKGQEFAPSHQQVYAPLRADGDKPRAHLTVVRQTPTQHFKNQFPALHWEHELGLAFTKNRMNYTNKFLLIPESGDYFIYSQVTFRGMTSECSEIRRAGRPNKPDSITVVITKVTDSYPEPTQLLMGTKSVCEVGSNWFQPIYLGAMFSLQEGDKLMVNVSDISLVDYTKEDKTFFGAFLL

T6: mouse TL1A, soluble, E. coli-expressed, residues 76-252 of SEQ ID NO:250 (mouse, UniProt Q5UBV8 76-252)
T6 construct: with or without N-terminal Met; also called mTL1A (E. Coli)
T6 sequence: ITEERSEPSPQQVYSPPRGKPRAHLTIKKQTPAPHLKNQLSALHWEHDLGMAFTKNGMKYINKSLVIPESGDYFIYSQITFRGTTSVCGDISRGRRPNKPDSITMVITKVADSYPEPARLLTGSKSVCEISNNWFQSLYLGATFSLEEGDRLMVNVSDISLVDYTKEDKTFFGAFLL


Legend:
[1] = biological target: T1, Fhm, hTL1A(Q167R), soluble, …; assay: cell-based or functional assay
[2] = biological target: T2, rat TL1A, soluble, CHO-expressed, …; assay: cell-based or functional assay
[3] = biological target: T3, human TL1A, soluble, CHO-expressed, …; assay: cell-based or functional assay
[4] = biological target: T4, cynomolgus monkey TL1A, soluble, E. …; assay: SPR 25C, mAb captured
Outline: (§1)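 Biacore T100 SPR with captured mAb and soluble TL1A/Fhm analyte; ka and kd fitted to a 1:1 model assuming monomeric TL1A. KD = kd/ka; t1/2 (min) = ln2/(60·kd).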

[5] = biological target: T5, Fhm, hTL1A(Q167R), soluble, E. …; assay: SPR 25C, mAb captured
Outline: as §1

[6] = biological target: T6, mouse TL1A, soluble, E. coli-expressed, …; assay: SPR 25C, steady state
Outline: as §1

Binder	IC50, NFkB-luciferase reporter [1]	IC50, NFkB-luciferase reporter [2]	IC50, IFN-g release, average of donors [3]	IC50, IFN-g release, donor D5 [3]	IC50, IFN-g release, donor D6 [3]	IC50, IFN-g release, donor D7 [3]	IC50, IFN-g release, donor D8 [3]	IC50, IFN-g release, donor D9 [3]	IC50, IFN-g release, donor D10 [3]	IC50, IFN-g release, donor D11 [3]	IC50, IFN-g release, donor D12 [3]	Kd [4]	t1/2 [4]	Kd [5]	t1/2 [5]	binding result [6]	IC50, IFN-g release, donor D1 [3]	IC50, IFN-g release, donor D2 [3]	IC50, IFN-g release, donor D3 [3]	IC50, IFN-g release, donor D4 [3]	further results
H4H1704N (antibody, human IgG4 S228P, V domains shown, human IgG4(S108P) form of H2M1704N) VH: EVQLVESGGGLVQPGGSLRLSCAVSGFTFSSYWMSWVRQAPGKGLEWVANIKEDGSEKNYVDSVKGRFTLSSDNAKNSLYLQMNSLRAEDTAVYYCAREDYDSYYKYGMDVWGQGTAVIVSS VL: not shown	0.17 nM	0.4 nM	12 nM	17 nM	11 nM	12 nM	19 nM	7.5 nM	10 nM	11 nM	8 nM										
H4H1750P (antibody, human IgG4 S228P, V domains shown) VH: QVQLVESGGGVVQPGRSLRLSCVASGFTFSNYGMHWVRQAPGKGLEWVAVISYDGNNDLYSDSVKGRFTISRDNAKNALSLQMTSLRAEDTAVYYCARDSTMTPYYYHGIDVWGQGTTVTVSA VL: DIQMTQSPSSLSASVGDRVTITCRASQDIRNDLGWYQQKPGKAPKRLIYAASSLQSGVPSRFSGSGSGTDFTLTISSLQPEDFATYYCLQHNSYPPTFGQGTKVEIK	3.1 nM											52.7 nM	0.0667 h	0.204 nM	10.4 h	no binding (tested: up to 100 nM)					
H4H1805N (antibody, human IgG4 S228P, V domains shown, human IgG4(S108P) form of H2M1805N) VH: QVQLQQWGAGLLKPSETLSLTCAVYGGSFTGFYWSWIRQPPGKGLEWIGEINHRGNTNYNPSLKSRVTMSVDTSKNQFSLNMISVTAADTAMYFCASPFYDFWSGSDYWGQGTLVTVSS VL: DIMLTQTPLTSPVTLGQPASISCKSSQSLVHSDGNTYLSWLQQRPGQPPRLLFYKISNRFSGVPDRFSGSGAGTDFTLKISRVEAEDVGVYYCMQATQFPLTFGGGTKVEIK	186 nM		4 nM	2.9 nM	3.4 nM	8 nM	5.1 nM	5.9 nM	2.8 nM	3 nM	3.1 nM						2.4 nM	5.5 nM	3.4 nM	2.5 nM	
H4H1745P (antibody, human IgG4 S228P, V domains shown) VH: EVQLVESGGGLVQPGGSLRLSCAASGFTFSSYAMTWVRQAPGKGLEWVSGVSGRGGSTYYADSVKGRFTISRDNSKNTLYLQMNSLRAEDTAVYYCAYWDISSFDYWGQGTLVTVSS VL: DIQLTQSPSFLSASVGDRVTITCWASQGISTYLAWYQQKPGKTPKLLIYAASTLQSGVPSRFSGSGSGTDFTLTISSLQPEDFATYYCQQFNSYPLTFGGGTKVEIK	0.15 nM											0.141 nM	3.68 h	0.115 nM	3.77 h	no binding (tested: up to 100 nM)					
H4H1719P (antibody, human IgG4 S228P, V domains shown) VH: EVQLVESGGGLVQPGRSLRLSCVASGFTFQDYAMHWVRQAPGKGLEWVSGINWISDDMGYADSVMGRFTISRDNAKNSLYLQMDSLRAEDTALYYCAKDKGLRFLDYVMDVWGQGTTVTVSA VL: DIVMTQSPLSLPVTPGEPASISCRSTQSLLHRNGHNYLHWYLHKPGQSPQLLIHLGSNRASGVPDRFSGSGSGTDFTLKISRVEAEDVGVYYCMQALQTPYTFGQGTKLEIK	0.08 nM											0.242 nM	1.32 h	0.109 nM	1.6 h	no binding (tested: up to 100 nM)					
H4H1738P (antibody, human IgG4 S228P, V domains shown) VH: EVQLVESGGALVKPGGSLRLSCAVSGFTFINDWMNWVRQAPGKGLEWVGRIKSTTDGGTTDDAAPVKGRFTISRDDSKNTLYLQMNSLKTEDTAVYYCTRDRNRQRNYFYDGMDVWGQGTTVTVSA VL: DIVMTQSPVSLPVTPGEPASISCRSSQRLLHNNGNNYLDWYLQKPGQSPQLLIYLGSNRASGVPDRFSGSGSGTDFTLKVSRVEAEDVGVYYCMQALQTPYTFGQGTKLEIK	0.33 nM											1.36 nM	0.3 h	1.02 nM	0.317 h	no binding (tested: up to 100 nM)					
H4H1752P (antibody, human IgG4 S228P, V domains shown) VH: EVQLVESGGGLVQPGGSLRLSCSASGFTFSKYVMTWVRQAPGKGLEWVSAIGPTGRTTEYADSVQGRFTISRDNSMNTVFLHLNSLTAEDTAEYYCAKMFDWNYDVYFDSWGQGTLVTVSS VL: DIQMTQSPSILSASVGDRVTITCRTSQSISNWLAWYQQKPGKAPNLLIYKASSLESGVPSRFSGSGSGTEFTLTISSLQPDDFATYYCQQYYRYWTFGQGTKVEIK												0.274 nM	2.03 h			no binding (tested: up to 100 nM)					binding result [5]: no binding (tested: up to 100 nM)
H4H1817N (antibody, human IgG4 S228P, V domains shown, human IgG4(S108P) form of H2M1817N) VH: QVQLQQWGAGLLKPSETLSLTCAVSGGSFSDYFWTWIRQPPGKGLEWIGEISHSGRTNYNPSLKSRVTISVDTSMSQFSLKMTSVTAADSAVYYCARDYPNWVFDYWGQGTLVTVSS VL: EIELTQSPGTLSLSPGEGATLSCRASQSVFNSYLAWYQQKPGQAPRLLIYGASRRATGIPDRFSGSGSGTDFTLTISRLEPGDFAVYFCQQYGNSPLTFGGGTKVEIK	0.12 nM	23.9 nM	6.5 nM	8.5 nM	4.7 nM	7 nM	7 nM	9.5 nM	7.3 nM	7.3 nM	9.4 nM						6.6 nM	3.1 nM	4.7 nM	2.4 nM	
H4H1804N (antibody, human IgG4 S228P, V domains shown, human IgG4(S108P) form of H2M1804N) VH: QVQLHQWGAGLLKPSETLSLTCAVSGVSFSDYHWAWIRQSPGKGLEWIGDINHRGRTNYNPSLKSRVTISLDTSGNPFSLKLTSVTAADTAVYYCARDFPNWVFDSWGQGILVTVSS VL: EIVLSQSPGTLSLSPGERATLSCRASQSVSSSFLAWYQQYPGQAPRLLIYGASRRATGIPDRFRGSGSGTDFTLTISRLEPEDFAVYYCQQYGSSPLTFGGGTKVENK	0.1 nM	3.64 nM	8.8 nM	6.7 nM	8.6 nM	12 nM	11 nM	8.1 nM	12 nM	7.6 nM	7.5 nM						6.8 nM	8.6 nM	8.6 nM	7.7 nM	
H4H1818N (antibody, human IgG4 S228P, V domains shown, human IgG4(S108P) form of H2M1818N) VH: RLQLVESGGGLVKPGGSLKLSCAASGFTISDYYMSWIRQAPGKGLEWVSYIGGSGSTIYYADSVKGRFTISRDNAKNSLYLQMNSLRAEDTAVYYCAREDADSYYYYGMDVWGQGTTVTVSS VL: not shown	0.62 nM	1.1 nM																			
